Publication PMC3127751, “Adhesive polypeptides of Staphylococcus aureus identified using a novel secretion library technique in Escherichia coli” (BMC Microbiology, 2011)

B1: His-ΔPurK (domain or fragment)
chain: MNFNKLKFGATIGIIGGGQLGKMMAQSAQKMGYKVVVLDPSEDCPCRYVAHEFIQAKYDDEKALNQLGQKCDVITYEFENISAQQLKLLCEKYNIPQGYQAIQLLQDRLTEKETLKSAGTKVVPFISVKESTDIDKAIETLGYPFIVKTRFGGYDGKGQVLINNEKDLQEGFKLIETSECVAEKYLNIKKEVSLTVTRGNNNQITFFPLQENEHRNQILFKTIVPARIDKTAEAKEQVNKIIQSIHFIGTFTVEFFIDSNNQLYVNEIAPRPHNSGHYSIEACDYSQFDTHILAVTGQSLPNSIELLKPAVMMNLLGKDLDLLENEFNEHPEWHLHIYGKSERKDSRKMGHMTVLTNDVNQTEQDMYAKFEGSN
notes: the PurK gene fragment of library clone ΔPurK (as the staphylococcal part of m5), recloned by PCR into pQE30; also called ΔPurK purified 6xHis polypeptide; source: E. coli cytoplasm (pQE30), purified under native conditions (QIAexpress System), dialysed against PBS; not shown: His6, N-terminal, kept
B2: fibrinogen (complex)
chain 1: ADSGEGDFLAEGGGVRGPRVVERHQSACKDSDWPFCSDEDWNYKCPSGCRMKGLIDEVNQDFTNRINKLKNSLFEYQKNNKDSHSLTTNIMEILRGDFSSANNRDNTYNRVSEDLRSRIEVLKRKVIEKVQHIQLLQKNVRAQLVDMKRLEVDIDIKIRSCRGSCSRALAREVDLKDYEDQQKQLEQVIAKDLLPSRDRQHLPLIKMKPVPDLVPGNFKSQLQKVPPEWKALTDMPQMRMELERPGGNEITRGGSTSYGTGSETESPRNPSSAGSWNSGSSGPGSTGNRNPGSSGTGGTATWKPGSSGPGSTGSWNSGSSGTGSTGNQNPGSPRPGSTGTWNPGSSERGSAGHWTSESSVSGSTGQWHSESGSFRPDSPGSGNARPNNPDWGTFEEVSGNVSPGTRREYHTEKLVTSKGDKELRTGKEKVTSGSTTTTRRSCSKTVTKTVIGPDGHKEVTKEVVTSEDGSDCPEAMDLGTLSGIGTLDGFRHRHPDEAAFFDTASTGKTFPGFFSPMLGEFVSETESRGSESGIFTNTKESSSHHPGIAEFPSRGKSSSYSKQFTSSTSYNRGDSTFESKSYKMADEAGSEADHEGTHSTKRGHAKSRPV
chain 2: QGVNDNEEGFFSARGHRPLDKKREEAPSLRPAPPPISGGGYRARPAKAAATQKKVERKAPDAGGCLHADPDLGVLCPTGCQLQEALLQQERPIRNSVDELNNNVEAVSQTSSSSFQYMYLLKDLWQKRQKQVKDNENVVNEYSSELEKHQLYIDETVNSNIPTNLRVLRSILENLRSKIQKLESDVSAQMEYCRTPCTVSCNIPVVSGKECEEIIRKGGETSEMYLIQPDSSVKPYRVYCDMNTENGGWTVIQNRQDGSVDFGRKWDPYKQGFGNVATNTDGKNYCGLPGEYWLGNDKISQLTRMGPTELLIEMEDWKGDKVKAHYGGFTVQNEANKYQISVNKYRGTAGNALMDGASQLMGENRTMTIHNGMFFSTYDRDNDGWLTSDPRKQCSKEDGGGWWYNRCHAANPNGRYYWGGQYTWDMAKHGTDDGVVWMNWKGSWYSMRKMSMKIRPFFPQQ
chain 3: YVATRDNCCILDERFGSYCPTTCGIADFLSTYQTKVDKDLQSLEDILHQVENKTSEVKQLIKAIQLTYNPDESSKPNMIDAATLKSRKMLEEIMKYEASILTHDSSIRYLQEIYNSNNQKIVNLKEKVAQLEAQCQEPCKDTVQIHDITGKDCQDIANKGAKQSGLYFIKPLKANQQFLVYCEIDGSGNGWTVFQKRLDGSVDFKKNWIQYKEGFGHLSPTGTTEFWLGNEKIHLISTQSAIPYALRVELEDWNGRTSTADYAMFKVGPEADKYRLTYAYFAGGDAGDAFDGFDFGDDPSDKFFTSHNGMQFSTWDNDNDKFEGNCAEQDGSGWWMNKCHAGHLNGVYYQGGTYSKASTPNGYDNGIIWATWKTRWYSMKKTTMKIIPFNRLTIGEGQQHHLGGAKQAGDV
modifications: plasma fibrinogen (AαBβγ)2, disulfide-linked and glycosylated, fibrinopeptides retained; the main circulating forms are assumed (Aα 610 residues, γA 411 residues). The γA chain is taken from PDB …
B3: His-ΔFnBPA (domain or fragment)
chain: ASEQKTTTVEENGNSATDNKTSETQTTATNVNHIEETQSYNATVTEQPSNATQVTTEEAPKAVQAPQTAQPANIETVKEEVVKEEAKPQVKETTQSQDNSGDQRQVDLTPKKATQNQVAETQVEVAQPRTASESKPRVTRSADVAEAKEASNAKVETGTDVTSKVTVEIGSIEGHNNTNKVEPHAGQRAVLKYKLKFENGLHQGDYFDFTLSNNVNTHGVSTARKVPEIKNGSVVMATGEVLEGGKIRYTFTNDIEDKVDVTAELEINLFIDPKTVQTNGNQTITSTLNEEQTSKELDVKYKDGIGNYYANLNGSIETFNKANNRFSHVAFIKPNNGKTTSVTVTGTLMKGSNQNGNQPKVRIFEYLGNNEDIAKSVYANTTDTSKFKEVTSNMSGNLNLQNNGSYSLNIENLDKTYVVHYDGEYLNGTDEVDFRTQMVGHPEQLYKYYYDRGYTLTWDNGLVLYSNKANGNEKNGPIIQNNKFEYKEDTIKETLTGQYDKNLVTTVEEEYDSSTLDIDYHTAIDGGGGYVDGYIETIEETDSSAIDIDYHTAVDSEAGHVGGYTESSEESNPIDFEESTHENSKHHADVVEYEEDTNPGGGQVTTESNLVEFDEESTKGIVTGAVSDHTTVEDTKEYTTESNLIELVDELPEEHGQAQGPVEEITKNNHHISHSGLGTENGHGNYDVIEEIEENSHVDIKSELGYEGGQNSGNQSFEEDTEEDKPKYEQGGNIVDIDFDSVPQIHGQNKGNQSFEEDTEKDKPKYEHGGNIIDIDFDSVPHIHGFNKHTEIIEEDTNKDKPSYQFGGHNSVDFEEDTLPKVSGQNEGQQTIEEDTTPPIVPPTPPTPEVPSEPETPTPPTPEVPSEPETPTPPTPEVPSEPETPTPPTPEVPAEPGKPVPPAKEEPKKPSKPVEQGKVVTPVIEINEKVKAVAPTKKPQSKKSELPET
notes: the FnBPA gene fragment of library clone ΔFnBPA (as the staphylococcal part of m2); also called ΔFnBPA purified 6xHis polypeptide; source: E. coli cytoplasm (pQE30), purified under native conditions (QIAexpress System), dialysed against PBS; not shown: His6, N-terminal, kept
B4: His-ΔUsp (domain or fragment)
chain: MITYKNILIAVDGSHEAEWAFNRAVGVAKRNDAKLTIVNVIDSRTYSSYEVYDAQFTEKSKHFAEELLNGYKEVATNAGVKDVETRLEFGSPKSIIPKKLAHEINADLIMSGTSGLNAVERFIVGSVSESIVRHAPCDVLVVRTEELPADFQPQVATTQLREKYQN
notes: the Usp-like gene fragment of library clone ΔUsp (as the staphylococcal part of m7), recloned by PCR into pQE30; also called ΔUsp purified 6xHis polypeptide; source: E. coli cytoplasm (pQE30), purified under native conditions (QIAexpress System), dialysed against PBS; not shown: His6, N-terminal, kept

Legend:
Experiment in all cases: SPR; Biacore T100, CM5 chip, Fn and Fg amine-coupled; His-polypeptides as analytes at 0.5, 1.0, 1.5, 2.0 and 2.5 μM in PBS, 30 μl/min, single cycle kinetics; steady state affinity constants
Conditions in all cases: both partners purified
human plasma fibronectin = human plasma fibronectin (human)
Sequence of human plasma fibronectin (human) (P02751 other isoform, or with tags, fused parts or gaps, chain 1 of 2): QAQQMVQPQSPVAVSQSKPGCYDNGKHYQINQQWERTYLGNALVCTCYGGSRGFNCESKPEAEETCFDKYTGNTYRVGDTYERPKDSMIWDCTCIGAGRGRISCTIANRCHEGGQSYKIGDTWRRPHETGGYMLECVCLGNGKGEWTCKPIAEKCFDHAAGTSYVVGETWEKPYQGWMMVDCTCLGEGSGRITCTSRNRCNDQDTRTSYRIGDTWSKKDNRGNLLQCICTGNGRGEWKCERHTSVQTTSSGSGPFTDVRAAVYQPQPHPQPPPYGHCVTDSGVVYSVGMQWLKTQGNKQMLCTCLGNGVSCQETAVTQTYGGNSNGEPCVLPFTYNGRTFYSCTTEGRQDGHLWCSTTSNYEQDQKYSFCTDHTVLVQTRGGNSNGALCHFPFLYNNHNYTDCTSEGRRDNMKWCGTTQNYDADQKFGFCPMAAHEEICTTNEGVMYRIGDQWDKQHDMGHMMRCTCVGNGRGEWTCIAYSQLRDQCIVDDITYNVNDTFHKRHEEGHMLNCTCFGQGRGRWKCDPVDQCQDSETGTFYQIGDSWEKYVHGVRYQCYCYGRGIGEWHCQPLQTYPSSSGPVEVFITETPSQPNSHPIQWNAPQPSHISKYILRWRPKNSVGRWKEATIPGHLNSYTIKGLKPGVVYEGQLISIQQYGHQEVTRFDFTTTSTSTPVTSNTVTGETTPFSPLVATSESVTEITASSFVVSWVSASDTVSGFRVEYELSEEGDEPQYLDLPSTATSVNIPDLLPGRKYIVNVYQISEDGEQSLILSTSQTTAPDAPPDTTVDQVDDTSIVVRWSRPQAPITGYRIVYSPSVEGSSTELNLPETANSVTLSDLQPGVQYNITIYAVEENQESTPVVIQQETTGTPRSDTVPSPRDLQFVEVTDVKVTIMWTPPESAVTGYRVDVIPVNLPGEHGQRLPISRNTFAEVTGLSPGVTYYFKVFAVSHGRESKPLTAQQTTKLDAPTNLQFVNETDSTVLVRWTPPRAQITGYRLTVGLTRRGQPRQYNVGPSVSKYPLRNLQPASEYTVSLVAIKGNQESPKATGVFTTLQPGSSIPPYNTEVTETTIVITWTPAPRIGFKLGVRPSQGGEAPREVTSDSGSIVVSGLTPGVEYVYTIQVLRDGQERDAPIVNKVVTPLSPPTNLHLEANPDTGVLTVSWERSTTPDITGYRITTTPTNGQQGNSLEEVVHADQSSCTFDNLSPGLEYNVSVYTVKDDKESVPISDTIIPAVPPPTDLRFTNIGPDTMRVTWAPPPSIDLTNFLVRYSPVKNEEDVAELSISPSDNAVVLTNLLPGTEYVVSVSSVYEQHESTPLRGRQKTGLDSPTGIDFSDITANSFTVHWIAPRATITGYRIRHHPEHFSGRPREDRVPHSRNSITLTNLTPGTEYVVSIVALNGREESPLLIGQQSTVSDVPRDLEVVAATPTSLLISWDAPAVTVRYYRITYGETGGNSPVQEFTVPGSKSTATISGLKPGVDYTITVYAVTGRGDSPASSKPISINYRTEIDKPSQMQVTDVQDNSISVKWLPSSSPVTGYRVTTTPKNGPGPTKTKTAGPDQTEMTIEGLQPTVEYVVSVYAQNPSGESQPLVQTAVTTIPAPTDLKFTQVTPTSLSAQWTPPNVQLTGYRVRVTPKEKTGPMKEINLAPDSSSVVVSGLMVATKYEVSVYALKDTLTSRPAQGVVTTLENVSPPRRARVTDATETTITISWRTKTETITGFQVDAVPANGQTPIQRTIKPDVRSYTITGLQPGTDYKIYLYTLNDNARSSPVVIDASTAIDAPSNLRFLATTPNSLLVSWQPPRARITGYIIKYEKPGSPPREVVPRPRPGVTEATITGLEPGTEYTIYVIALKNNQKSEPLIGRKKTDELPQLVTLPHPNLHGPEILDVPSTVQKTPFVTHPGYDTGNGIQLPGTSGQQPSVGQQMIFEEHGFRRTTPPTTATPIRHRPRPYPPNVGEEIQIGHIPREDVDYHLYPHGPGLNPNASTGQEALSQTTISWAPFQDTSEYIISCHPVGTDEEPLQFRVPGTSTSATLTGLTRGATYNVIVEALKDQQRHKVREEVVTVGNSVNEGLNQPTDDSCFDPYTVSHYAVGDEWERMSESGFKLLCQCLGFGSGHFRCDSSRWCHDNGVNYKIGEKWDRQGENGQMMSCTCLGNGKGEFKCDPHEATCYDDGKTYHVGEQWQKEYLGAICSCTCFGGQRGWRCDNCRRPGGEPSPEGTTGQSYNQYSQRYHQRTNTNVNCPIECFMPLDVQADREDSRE
Sequence of human plasma fibronectin (human) (P02751 other isoform, or with tags, fused parts or gaps, chain 2 of 2): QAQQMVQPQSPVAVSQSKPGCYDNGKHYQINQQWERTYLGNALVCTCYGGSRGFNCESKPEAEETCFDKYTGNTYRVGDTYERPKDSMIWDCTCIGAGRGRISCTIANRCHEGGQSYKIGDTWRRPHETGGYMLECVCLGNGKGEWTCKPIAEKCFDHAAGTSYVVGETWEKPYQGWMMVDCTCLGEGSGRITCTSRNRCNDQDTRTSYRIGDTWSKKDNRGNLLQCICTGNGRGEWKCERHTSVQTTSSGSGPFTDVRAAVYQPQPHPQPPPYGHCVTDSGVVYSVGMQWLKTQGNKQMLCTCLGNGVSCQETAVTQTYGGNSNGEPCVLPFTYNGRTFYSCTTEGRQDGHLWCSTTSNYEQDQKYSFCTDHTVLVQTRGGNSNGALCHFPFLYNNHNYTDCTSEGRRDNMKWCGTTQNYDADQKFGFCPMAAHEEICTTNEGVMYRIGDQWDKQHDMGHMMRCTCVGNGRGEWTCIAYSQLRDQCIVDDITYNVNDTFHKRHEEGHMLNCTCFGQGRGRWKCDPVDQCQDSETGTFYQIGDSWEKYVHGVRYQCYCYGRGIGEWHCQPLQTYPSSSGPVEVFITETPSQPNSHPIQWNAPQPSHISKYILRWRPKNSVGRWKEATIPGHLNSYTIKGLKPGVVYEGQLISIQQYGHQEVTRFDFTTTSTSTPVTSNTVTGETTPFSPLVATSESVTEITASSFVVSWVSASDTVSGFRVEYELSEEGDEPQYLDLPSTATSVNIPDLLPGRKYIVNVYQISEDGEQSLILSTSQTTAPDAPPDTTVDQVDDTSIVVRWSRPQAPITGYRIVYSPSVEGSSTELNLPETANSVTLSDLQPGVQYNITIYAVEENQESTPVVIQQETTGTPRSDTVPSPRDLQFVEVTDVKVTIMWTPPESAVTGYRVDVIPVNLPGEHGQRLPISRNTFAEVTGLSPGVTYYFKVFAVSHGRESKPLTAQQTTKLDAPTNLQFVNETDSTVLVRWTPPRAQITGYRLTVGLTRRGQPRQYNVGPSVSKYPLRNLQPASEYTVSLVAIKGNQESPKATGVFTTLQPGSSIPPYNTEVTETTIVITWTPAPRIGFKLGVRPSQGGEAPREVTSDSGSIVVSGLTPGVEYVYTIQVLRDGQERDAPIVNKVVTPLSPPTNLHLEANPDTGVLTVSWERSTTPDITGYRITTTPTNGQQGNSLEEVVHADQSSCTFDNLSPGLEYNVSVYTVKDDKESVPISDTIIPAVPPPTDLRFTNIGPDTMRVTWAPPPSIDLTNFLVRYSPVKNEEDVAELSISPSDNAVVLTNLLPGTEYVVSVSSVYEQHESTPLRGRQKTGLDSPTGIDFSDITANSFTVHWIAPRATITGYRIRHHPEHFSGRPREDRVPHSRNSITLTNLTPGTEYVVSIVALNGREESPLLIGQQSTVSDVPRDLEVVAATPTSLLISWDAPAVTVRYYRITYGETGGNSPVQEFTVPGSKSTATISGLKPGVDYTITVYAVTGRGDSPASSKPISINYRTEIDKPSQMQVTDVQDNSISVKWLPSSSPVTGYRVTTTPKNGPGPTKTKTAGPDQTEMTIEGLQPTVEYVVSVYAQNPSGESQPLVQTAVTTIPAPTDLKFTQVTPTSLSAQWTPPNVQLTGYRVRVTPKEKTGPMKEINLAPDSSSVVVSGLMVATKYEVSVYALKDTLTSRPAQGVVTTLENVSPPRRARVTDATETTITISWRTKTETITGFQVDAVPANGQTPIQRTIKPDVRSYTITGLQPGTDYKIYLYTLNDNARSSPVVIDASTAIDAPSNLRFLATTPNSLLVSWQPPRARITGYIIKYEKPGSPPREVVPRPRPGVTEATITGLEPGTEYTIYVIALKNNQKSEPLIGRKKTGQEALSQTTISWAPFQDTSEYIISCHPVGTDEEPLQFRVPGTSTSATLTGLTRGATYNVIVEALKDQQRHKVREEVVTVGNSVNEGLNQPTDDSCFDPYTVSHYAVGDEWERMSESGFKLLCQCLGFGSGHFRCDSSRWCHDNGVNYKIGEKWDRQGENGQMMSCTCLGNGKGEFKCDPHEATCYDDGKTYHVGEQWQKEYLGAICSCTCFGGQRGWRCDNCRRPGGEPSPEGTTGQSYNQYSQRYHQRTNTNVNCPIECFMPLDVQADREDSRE

fibrinogen = target: B2
His-ΔCoa = His-ΔCoa (S. aureus subsp. aureus NCTC 8325-4, UniProt Q2G1D3 1-636)
His-ΔEbh = target: T1, His-ΔEbh (S. aureus subsp. aureus NCTC 8325-4, UniProt Q2FYJ6 40-9535)
T1 construct: the Ebh gene fragment of library clone ΔEbh (as the staphylococcal part of m3), recloned by PCR into pQE30; also called ΔEbh purified 6xHis polypeptide; source: E. coli cytoplasm (pQE30), purified under native conditions (QIAexpress System), dialysed against PBS; not shown: His6, N-terminal, kept

Binder	Kd (human plasma fibronectin)	Kd (fibrinogen)	Kd (His-ΔCoa)	Kd (His-ΔEbh)
B1	443 nM	5.39 µM		
B2			180 nM	1250 nM
B3	5240 nM			
B4		6.45 µM		
